Test [1] deals with NmeCas9 (Neisseria meningitides) (UniProt C9X1G5). Description: ITC. For orientation: ITC needs no label: the signal is the heat of the interaction.
For test [2], the target named is BH-REC1 fragment of NmeCas9 (Neisseria meningitides). Description: ITC.

pKd: −log10 of the molar value.

NmeCas9 (Neisseria meningitides), sequence (C9X1G5 whole entry, the tested form may be a part): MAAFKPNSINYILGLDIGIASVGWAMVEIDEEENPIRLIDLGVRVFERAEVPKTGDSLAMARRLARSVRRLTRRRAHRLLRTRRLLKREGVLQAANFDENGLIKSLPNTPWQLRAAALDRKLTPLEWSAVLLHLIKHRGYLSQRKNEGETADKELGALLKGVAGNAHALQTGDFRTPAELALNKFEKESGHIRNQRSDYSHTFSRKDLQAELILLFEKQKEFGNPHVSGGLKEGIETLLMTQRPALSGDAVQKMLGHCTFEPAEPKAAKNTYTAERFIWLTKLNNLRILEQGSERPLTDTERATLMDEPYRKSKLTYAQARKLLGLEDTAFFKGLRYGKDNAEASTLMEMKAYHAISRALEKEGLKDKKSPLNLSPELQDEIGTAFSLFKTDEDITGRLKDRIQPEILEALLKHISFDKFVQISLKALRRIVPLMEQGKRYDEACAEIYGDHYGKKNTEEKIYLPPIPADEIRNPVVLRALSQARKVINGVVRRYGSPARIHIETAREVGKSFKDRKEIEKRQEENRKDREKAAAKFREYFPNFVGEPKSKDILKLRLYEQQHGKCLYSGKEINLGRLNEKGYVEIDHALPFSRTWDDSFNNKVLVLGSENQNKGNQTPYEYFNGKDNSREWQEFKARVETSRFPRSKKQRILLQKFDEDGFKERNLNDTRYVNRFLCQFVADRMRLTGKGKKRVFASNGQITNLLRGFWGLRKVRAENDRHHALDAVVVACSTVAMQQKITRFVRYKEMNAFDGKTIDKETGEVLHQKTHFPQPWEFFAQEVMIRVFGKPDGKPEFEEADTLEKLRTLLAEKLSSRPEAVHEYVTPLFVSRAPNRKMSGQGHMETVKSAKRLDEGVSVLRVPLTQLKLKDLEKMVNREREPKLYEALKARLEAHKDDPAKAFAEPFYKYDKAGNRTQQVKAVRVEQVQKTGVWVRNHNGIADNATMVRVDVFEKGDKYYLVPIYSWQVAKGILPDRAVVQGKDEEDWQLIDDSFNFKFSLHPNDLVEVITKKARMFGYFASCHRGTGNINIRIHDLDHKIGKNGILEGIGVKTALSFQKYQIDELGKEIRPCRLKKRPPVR

On to AcrIIA17 (natural protein), for which, in test [1], the negative-log Kd (pKd) was 8.30 and the stoichiometry N worked out at 1. Moreover, the fold reduction of the binding affinity in high salt against 300 mM salt in test [2] was determined as 10 fold.
Regarding “AcrIIA17 D81A/E84A mutant (natural protein)”, in test [2], the fold reduction in binding affinity against wild-type AcrIIA17 came to 20 fold.

As usually defined, the pKd is the negative decadic logarithm of the Kd, by convention in mol/L. The low end stands for a high Kd, the high end for a low Kd. In general, stoichiometry N refers to a count of units in the complex or per binding partner.
